# Measured values reported in patent publication US20210388087A1 (Chugai, published 2021).
# Target: T1, CD3 epsilon homodimer protein (UniProt P07766 23-126)
# T1 construct: also called CD3 (CD3 epsilon)
# Experiment: SPR, antibody over immobilised CD3e homodimer;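 also: SPR at 25 °C with CD3 epsilon homodimer amine-coupled to a CM4 sensor chip and antibody flowed over as analyte in HBS-EP+ running buffer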
# T1 sequence (P07766 23-126): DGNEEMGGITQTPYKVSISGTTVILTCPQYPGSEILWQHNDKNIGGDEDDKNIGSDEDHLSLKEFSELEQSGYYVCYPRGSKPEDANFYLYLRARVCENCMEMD
row,KD ratio to GLS3000,Binder
1,4.6,"CE115HA000/GLS3000 H34Q (antibody, IgG1, name in Kabat numbering, V domains shown, one-arm IgG1) VH: QVQLVESGGGVVQPGRSLRLSCAASGFTFSNAWMHWVRQAPGKGLEWVAQIKAKSNNYATYYAESVKGRFTISRDDSKNSLYLQMNSLKTEDTAVYYCRYVHYGAYYGVDAWGQGTTVTVSS VL: DIVMTQSPLSLPVTPGEPASISCRSSQSLVHSNRNTYLQWYQQKPGQAPRLLIYKVSNRFSGVPDRFSGSGSGTDFTLKISRVEAEDVGVYYCGQGTQVPYTFGQGTKLEIK"
2,8.13,"CE115HA000/GLS3000 K50Q (antibody, IgG1, name in Kabat numbering, V domains shown, one-arm IgG1) VH: QVQLVESGGGVVQPGRSLRLSCAASGFTFSNAWMHWVRQAPGKGLEWVAQIKAKSNNYATYYAESVKGRFTISRDDSKNSLYLQMNSLKTEDTAVYYCRYVHYGAYYGVDAWGQGTTVTVSS VL: DIVMTQSPLSLPVTPGEPASISCRSSQSLVHSNRNTYLHWYQQKPGQAPRLLIYQVSNRFSGVPDRFSGSGSGTDFTLKISRVEAEDVGVYYCGQGTQVPYTFGQGTKLEIK"
3,57.2,"CE115HA000/GLS3000 K50E (antibody, IgG1, name in Kabat numbering, V domains shown, one-arm IgG1) VH: QVQLVESGGGVVQPGRSLRLSCAASGFTFSNAWMHWVRQAPGKGLEWVAQIKAKSNNYATYYAESVKGRFTISRDDSKNSLYLQMNSLKTEDTAVYYCRYVHYGAYYGVDAWGQGTTVTVSS VL: DIVMTQSPLSLPVTPGEPASISCRSSQSLVHSNRNTYLHWYQQKPGQAPRLLIYEVSNRFSGVPDRFSGSGSGTDFTLKISRVEAEDVGVYYCGQGTQVPYTFGQGTKLEIK"
4,1.83,"CE115HA000/GLS3000 K50R (antibody, IgG1, name in Kabat numbering, V domains shown, one-arm IgG1) VH: QVQLVESGGGVVQPGRSLRLSCAASGFTFSNAWMHWVRQAPGKGLEWVAQIKAKSNNYATYYAESVKGRFTISRDDSKNSLYLQMNSLKTEDTAVYYCRYVHYGAYYGVDAWGQGTTVTVSS VL: DIVMTQSPLSLPVTPGEPASISCRSSQSLVHSNRNTYLHWYQQKPGQAPRLLIYRVSNRFSGVPDRFSGSGSGTDFTLKISRVEAEDVGVYYCGQGTQVPYTFGQGTKLEIK"
5,42.4,"CE115HA000/GLS3000 K50G (antibody, IgG1, name in Kabat numbering, V domains shown, one-arm IgG1) VH: QVQLVESGGGVVQPGRSLRLSCAASGFTFSNAWMHWVRQAPGKGLEWVAQIKAKSNNYATYYAESVKGRFTISRDDSKNSLYLQMNSLKTEDTAVYYCRYVHYGAYYGVDAWGQGTTVTVSS VL: DIVMTQSPLSLPVTPGEPASISCRSSQSLVHSNRNTYLHWYQQKPGQAPRLLIYGVSNRFSGVPDRFSGSGSGTDFTLKISRVEAEDVGVYYCGQGTQVPYTFGQGTKLEIK"
6,2.44,"CE115HA000/GLS3000 H34Y (antibody, IgG1, name in Kabat numbering, V domains shown, one-arm IgG1) VH: QVQLVESGGGVVQPGRSLRLSCAASGFTFSNAWMHWVRQAPGKGLEWVAQIKAKSNNYATYYAESVKGRFTISRDDSKNSLYLQMNSLKTEDTAVYYCRYVHYGAYYGVDAWGQGTTVTVSS VL: DIVMTQSPLSLPVTPGEPASISCRSSQSLVHSNRNTYLYWYQQKPGQAPRLLIYKVSNRFSGVPDRFSGSGSGTDFTLKISRVEAEDVGVYYCGQGTQVPYTFGQGTKLEIK"
7,45.3,"CE115HA000/GLS3000 K50S (antibody, IgG1, name in Kabat numbering, V domains shown, one-arm IgG1) VH: QVQLVESGGGVVQPGRSLRLSCAASGFTFSNAWMHWVRQAPGKGLEWVAQIKAKSNNYATYYAESVKGRFTISRDDSKNSLYLQMNSLKTEDTAVYYCRYVHYGAYYGVDAWGQGTTVTVSS VL: DIVMTQSPLSLPVTPGEPASISCRSSQSLVHSNRNTYLHWYQQKPGQAPRLLIYSVSNRFSGVPDRFSGSGSGTDFTLKISRVEAEDVGVYYCGQGTQVPYTFGQGTKLEIK"
8,114,"CE115HA000/GLS3000 K50D (antibody, IgG1, name in Kabat numbering, V domains shown, one-arm IgG1) VH: QVQLVESGGGVVQPGRSLRLSCAASGFTFSNAWMHWVRQAPGKGLEWVAQIKAKSNNYATYYAESVKGRFTISRDDSKNSLYLQMNSLKTEDTAVYYCRYVHYGAYYGVDAWGQGTTVTVSS VL: DIVMTQSPLSLPVTPGEPASISCRSSQSLVHSNRNTYLHWYQQKPGQAPRLLIYDVSNRFSGVPDRFSGSGSGTDFTLKISRVEAEDVGVYYCGQGTQVPYTFGQGTKLEIK"
9,1.04,"CE115HA000/GLS3000 H34V (antibody, IgG1, name in Kabat numbering, V domains shown, one-arm IgG1) VH: QVQLVESGGGVVQPGRSLRLSCAASGFTFSNAWMHWVRQAPGKGLEWVAQIKAKSNNYATYYAESVKGRFTISRDDSKNSLYLQMNSLKTEDTAVYYCRYVHYGAYYGVDAWGQGTTVTVSS VL: DIVMTQSPLSLPVTPGEPASISCRSSQSLVHSNRNTYLVWYQQKPGQAPRLLIYKVSNRFSGVPDRFSGSGSGTDFTLKISRVEAEDVGVYYCGQGTQVPYTFGQGTKLEIK"
10,36.4,"CE115HA000/GLS3000 K50L (antibody, IgG1, name in Kabat numbering, V domains shown, one-arm IgG1) VH: QVQLVESGGGVVQPGRSLRLSCAASGFTFSNAWMHWVRQAPGKGLEWVAQIKAKSNNYATYYAESVKGRFTISRDDSKNSLYLQMNSLKTEDTAVYYCRYVHYGAYYGVDAWGQGTTVTVSS VL: DIVMTQSPLSLPVTPGEPASISCRSSQSLVHSNRNTYLHWYQQKPGQAPRLLIYLVSNRFSGVPDRFSGSGSGTDFTLKISRVEAEDVGVYYCGQGTQVPYTFGQGTKLEIK"
11,1.1,"CE115HA000/GLS3000 H34T (antibody, IgG1, name in Kabat numbering, V domains shown, one-arm IgG1) VH: QVQLVESGGGVVQPGRSLRLSCAASGFTFSNAWMHWVRQAPGKGLEWVAQIKAKSNNYATYYAESVKGRFTISRDDSKNSLYLQMNSLKTEDTAVYYCRYVHYGAYYGVDAWGQGTTVTVSS VL: DIVMTQSPLSLPVTPGEPASISCRSSQSLVHSNRNTYLTWYQQKPGQAPRLLIYKVSNRFSGVPDRFSGSGSGTDFTLKISRVEAEDVGVYYCGQGTQVPYTFGQGTKLEIK"
12,8.45,"CE115HA000/GLS3000 H34W (antibody, IgG1, name in Kabat numbering, V domains shown, one-arm IgG1) VH: QVQLVESGGGVVQPGRSLRLSCAASGFTFSNAWMHWVRQAPGKGLEWVAQIKAKSNNYATYYAESVKGRFTISRDDSKNSLYLQMNSLKTEDTAVYYCRYVHYGAYYGVDAWGQGTTVTVSS VL: DIVMTQSPLSLPVTPGEPASISCRSSQSLVHSNRNTYLWWYQQKPGQAPRLLIYKVSNRFSGVPDRFSGSGSGTDFTLKISRVEAEDVGVYYCGQGTQVPYTFGQGTKLEIK"
13,1.24,"CE115HA000/GLS3000 H34S (antibody, IgG1, name in Kabat numbering, V domains shown, one-arm IgG1) VH: QVQLVESGGGVVQPGRSLRLSCAASGFTFSNAWMHWVRQAPGKGLEWVAQIKAKSNNYATYYAESVKGRFTISRDDSKNSLYLQMNSLKTEDTAVYYCRYVHYGAYYGVDAWGQGTTVTVSS VL: DIVMTQSPLSLPVTPGEPASISCRSSQSLVHSNRNTYLSWYQQKPGQAPRLLIYKVSNRFSGVPDRFSGSGSGTDFTLKISRVEAEDVGVYYCGQGTQVPYTFGQGTKLEIK"
14,59.5,"CE115HA000/GLS3000 K50A (antibody, IgG1, name in Kabat numbering, V domains shown, one-arm IgG1) VH: QVQLVESGGGVVQPGRSLRLSCAASGFTFSNAWMHWVRQAPGKGLEWVAQIKAKSNNYATYYAESVKGRFTISRDDSKNSLYLQMNSLKTEDTAVYYCRYVHYGAYYGVDAWGQGTTVTVSS VL: DIVMTQSPLSLPVTPGEPASISCRSSQSLVHSNRNTYLHWYQQKPGQAPRLLIYAVSNRFSGVPDRFSGSGSGTDFTLKISRVEAEDVGVYYCGQGTQVPYTFGQGTKLEIK"
15,27.7,"CE115HA000/GLS3000 K50P (antibody, IgG1, name in Kabat numbering, V domains shown, one-arm IgG1) VH: QVQLVESGGGVVQPGRSLRLSCAASGFTFSNAWMHWVRQAPGKGLEWVAQIKAKSNNYATYYAESVKGRFTISRDDSKNSLYLQMNSLKTEDTAVYYCRYVHYGAYYGVDAWGQGTTVTVSS VL: DIVMTQSPLSLPVTPGEPASISCRSSQSLVHSNRNTYLHWYQQKPGQAPRLLIYPVSNRFSGVPDRFSGSGSGTDFTLKISRVEAEDVGVYYCGQGTQVPYTFGQGTKLEIK"
